{
  "source": "patent US20250186597A1",
  "about": "“TARGETED IMMUNE ACTIVATION WITH IL-18 IMMUNOCYTOKINES” (BRIGHT PEAK THERAPEUTICS AG, priority 2023, published 2025)",
  "assay_in_all_cases": "cell-based or functional assay",
  "key": {"[1]": {"molecular_target": "IL-18 polypeptide of SEQ ID NO: 59 (E6K, C38A, K53A) (human) (UniProt Q14116)"}, "[2]": {"molecular_target": "IL-18 polypeptide of SEQ ID NO: 39 (E06K, K53A) (human) (UniProt Q14116)"}, "[3]": {"molecular_target": "IL-18 polypeptide C159 (V11I, C38A, K53A, C76A, H109A, C127A) (human) (UniProt Q14116)"}, "[4]": {"molecular_target": "IL-18 polypeptide of SEQ ID NO: 43 (E06K, K53A, S55A, Y01G) (human) (UniProt Q14116)"}, "[5]": {"molecular_target": "IL-18 polypeptide C162 (K8E, V11I, C38A, C76A, Q103R, C127A) (human) (UniProt Q14116)"}, "[6]": {"molecular_target": "IL-18 polypeptide C148 (F2A, V11I, C38A, K53A, C76A, C127A) (human) (UniProt Q14116)"}, "[7]": {"molecular_target": "IL-18 polypeptide C154 (V11I, E31A, D37A, C38A, K53A, C76A, C127A) (human) (UniProt Q14116)"}, "[8]": {"molecular_target": "IL-18 polypeptide of SEQ ID NO: 52 (E06K, T63A) (human) (UniProt Q14116)"}, "[9]": {"molecular_target": "IL-18 polypeptide of SEQ ID NO: 50 (E06K, K53A, T63A) (human) (UniProt Q14116)"}, "[10]": {"molecular_target": "IL-18 polypeptide of SEQ ID NO: 51 (T63A) (human) (UniProt Q14116)"}, "[11]": {"molecular_target": "IL-18 polypeptide of SEQ ID NO: 4 (E6K, C38A, K53A, C68A, M86C) (human) (UniProt Q14116)"}, "[12]": {"molecular_target": "IL-18 polypeptide C165 (V11I, C38A, S55R, C76A, C127A) (human) (UniProt Q14116)"}, "[13]": {"molecular_target": "IL-18 polypeptide of SEQ ID NO: 55 (K53A, T63A, C38S, C68S, C76S, C127S, K70C) (human) (UniProt Q14116)"}, "[14]": {"molecular_target": "IL-18 polypeptide of SEQ ID NO: 38 (E06K) (human) (UniProt Q14116)"}, "[15]": {"molecular_target": "IL-18 polypeptide of SEQ ID NO: 5 (E6K, V11I, C38A, K53A, T63A, C68A, C76A, M86C, C127A) (human) (UniProt Q14116)"}, "[16]": {"molecular_target": "IL-18 polypeptide of SEQ ID NO: 9 (E6K, C38A, K53A, C68A, D98C) (human) (UniProt Q14116)"}, "[17]": {"molecular_target": "IL-18 polypeptide C153 (V11I, D37A, C38A, K53A, C76A, C127A) (human) (UniProt Q14116)"}, "[18]": {"molecular_target": "IL-18 polypeptide of SEQ ID NO: 57 (E6K, C38S, K53A) (human) (UniProt Q14116)"}, "[19]": {"molecular_target": "IL-18 polypeptide of SEQ ID NO: 53 (K53A, T63A) (human) (UniProt Q14116)"}, "[20]": {"molecular_target": "IL-18 polypeptide C166 (V11I, C38A, S55T, C76A, C127A) (human) (UniProt Q14116)"}, "[21]": {"molecular_target": "IL-18 polypeptide of SEQ ID NO: 35 (Y01G, F02A, E06K, M51G, K53A, D54A, S55A, T63A) (human) (UniProt Q14116)"}, "[22]": {"molecular_target": "IL-18 polypeptide of SEQ ID NO: 62 (E6K, C38A, K53A, C127A) (human) (UniProt Q14116)"}, "[23]": {"molecular_target": "IL-18 polypeptide C163 (V11I, C38A, C76A, Q103K, C127A) (human) (UniProt Q14116)"}, "[24]": {"molecular_target": "IL-18 polypeptide C149 (V11I, E31A, C38A, K53A, C76A, C127A) (human) (UniProt Q14116)"}, "[25]": {"molecular_target": "IL-18 polypeptide of SEQ ID NO: 48 (C38S, C68S, C76S, C127S, K70C) (human) (UniProt Q14116)"}, "[26]": {"molecular_target": "IL-18 polypeptide of SEQ ID NO: 41 (K53A, S55A) (human) (UniProt Q14116)"}, "[27]": {"molecular_target": "IL-18 polypeptide of SEQ ID NO: 54 (E06K, K53A, C38S, C68S, C76S, C127S, K70C) (human) (UniProt Q14116)"}, "[28]": {"molecular_target": "IL-18 polypeptide C147 (V11I, C38A, K53A, D54A, C76A, C127A) (human) (UniProt Q14116)"}, "[29]": {"molecular_target": "IL-18 polypeptide C161 (K8R, V11I, C38A, C76A, Q103E, C127A) (human) (UniProt Q14116)"}, "[30]": {"molecular_target": "native IL-18 wild-type (SEQ ID NO: 1) (human) (UniProt Q14116)"}, "[31]": {"molecular_target": "IL-18 polypeptide C164 (V11I, C38A, S55H, C76A, C127A) (human) (UniProt Q14116)"}, "[32]": {"molecular_target": "IL-18 polypeptide of SEQ ID NO: 40 (E06K, S55A) (human) (UniProt Q14116)"}, "[33]": {"molecular_target": "IL-18 polypeptide of SEQ ID NO: 34 (E06K, K53A, S55A) (human) (UniProt Q14116)"}},
  "data": [
    {"substance": "Fc fused human IL-18 binding protein isoform a (IL-18BPa; R&D systems, Cat #119-BP) (from UniProt O95998 31-194) (Fc fusion)", "values": [
      {"measurement": "IC50 of inhibition by IL-18BP of IFNγ stimulation in NK92 cells", "setting": "[1]", "result": 654, "unit": "nM"},
      {"measurement": "IC50 of inhibition by IL-18BP of IFNγ stimulation in NK92 cells", "setting": "[2]", "result": "> 703", "unit": "nM"},
      {"measurement": "IC50 of inhibition by IL-18BP of IFNγ stimulation in NK92 cells", "setting": "[3]", "result": 1.81, "unit": "nM"},
      {"measurement": "IC50 of inhibition by IL-18BP of IFNγ stimulation in NK92 cells", "setting": "[4]", "result": 27.8, "unit": "nM"},
      {"measurement": "IC50 of inhibition by IL-18BP of IFNγ stimulation in NK92 cells", "setting": "[5]", "result": 7.29, "unit": "nM"},
      {"measurement": "IC50 of inhibition by IL-18BP of IFNγ stimulation in NK92 cells", "setting": "[6]", "result": 5.05, "unit": "nM"},
      {"measurement": "IC50 of inhibition by IL-18BP of IFNγ stimulation in NK92 cells", "setting": "[7]", "result": 3.71, "unit": "nM"},
      {"measurement": "IC50 of inhibition by IL-18BP of IFNγ stimulation in NK92 cells", "setting": "[8]", "result": 47.1, "unit": "nM"},
      {"measurement": "IC50 of inhibition by IL-18BP of IFNγ stimulation in NK92 cells", "setting": "[9]", "result": "> 1000", "unit": "nM"},
      {"measurement": "IC50 of inhibition by IL-18BP of IFNγ stimulation in NK92 cells", "setting": "[10]", "result": 0.239, "unit": "nM"},
      {"measurement": "IC50 of inhibition by IL-18BP of IFNγ stimulation in NK92 cells", "setting": "[11]", "result": 396, "unit": "nM"},
      {"measurement": "IC50 of inhibition by IL-18BP of IFNγ stimulation in NK92 cells", "setting": "[12]", "result": 0.885, "unit": "nM"},
      {"measurement": "IC50 of inhibition by IL-18BP of IFNγ stimulation in NK92 cells", "setting": "[13]", "result": "> 1000", "unit": "nM"},
      {"measurement": "IC50 of inhibition by IL-18BP of IFNγ stimulation in NK92 cells", "setting": "[14]", "result": 7.79, "unit": "nM"},
      {"measurement": "IC50 of inhibition by IL-18BP of IFNγ stimulation in NK92 cells", "setting": "[15]", "result": 62.4, "unit": "nM"},
      {"measurement": "IC50 of inhibition by IL-18BP of IFNγ stimulation in NK92 cells", "setting": "[16]", "result": 961, "unit": "nM"},
      {"measurement": "IC50 of inhibition by IL-18BP of IFNγ stimulation in NK92 cells", "setting": "[17]", "result": 2.22, "unit": "nM"},
      {"measurement": "IC50 of inhibition by IL-18BP of IFNγ stimulation in NK92 cells", "setting": "[18]", "result": 146, "unit": "nM"},
      {"measurement": "IC50 of inhibition by IL-18BP of IFNγ stimulation in NK92 cells", "setting": "[19]", "result": 18.2, "unit": "nM"},
      {"measurement": "IC50 of inhibition by IL-18BP of IFNγ stimulation in NK92 cells", "setting": "[20]", "result": 0.44, "unit": "nM"},
      {"measurement": "IC50 of inhibition by IL-18BP of IFNγ stimulation in NK92 cells", "setting": "[21]", "result": "> 55", "unit": "nM"},
      {"measurement": "IC50 of inhibition by IL-18BP of IFNγ stimulation in NK92 cells", "setting": "[22]", "result": 284, "unit": "nM"},
      {"measurement": "IC50 of inhibition by IL-18BP of IFNγ stimulation in NK92 cells", "setting": "[23]", "result": 0.823, "unit": "nM"},
      {"measurement": "IC50 of inhibition by IL-18BP of IFNγ stimulation in NK92 cells", "setting": "[24]", "result": 1.17, "unit": "nM"},
      {"measurement": "IC50 of inhibition by IL-18BP of IFNγ stimulation in NK92 cells", "setting": "[25]", "result": 0.114, "unit": "nM"},
      {"measurement": "IC50 of inhibition by IL-18BP of IFNγ stimulation in NK92 cells", "setting": "[26]", "result": 37.3, "unit": "nM"},
      {"measurement": "IC50 of inhibition by IL-18BP of IFNγ stimulation in NK92 cells", "setting": "[27]", "result": 23.5, "unit": "nM"},
      {"measurement": "IC50 of inhibition by IL-18BP of IFNγ stimulation in NK92 cells", "setting": "[28]", "result": 47.6, "unit": "nM"},
      {"measurement": "IC50 of inhibition by IL-18BP of IFNγ stimulation in NK92 cells", "setting": "[29]", "result": 1.07, "unit": "nM"},
      {"measurement": "IC50 of IL-18BP-mediated inhibition of IFNγ secretion by NK92 cells", "setting": "[30]", "result": 0.781, "unit": "nM"},
      {"measurement": "IC50 of inhibition by IL-18BP of IFNγ stimulation in NK92 cells", "setting": "[30]", "result": 1.47, "unit": "nM"},
      {"measurement": "IC50 of inhibition by IL-18BP of IFNγ stimulation in NK92 cells", "setting": "[31]", "result": 0.456, "unit": "nM"},
      {"measurement": "IC50 of inhibition by IL-18BP of IFNγ stimulation in NK92 cells", "setting": "[32]", "result": 15, "unit": "nM"},
      {"measurement": "IC50 of inhibition by IL-18BP of IFNγ stimulation in NK92 cells", "setting": "[33]", "result": 229, "unit": "nM"}
    ]}
  ]
}
